From the supplement of paper PMC11136658

Tested on: peptide library, one residue held at a place counted from the Y acceptor
Assay: relative phosphorylation of the sub-library (ratio to the mean residue at this position); higher = residue favoured
Outline: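 Within 384-well plates, purified recombinant kinases phosphorylated biotinylated Tyr-centred peptide library mixtures over 90 min using 50 μM ATP spiked with γ-32P-ATP; each mixture fixed one residue at one position from −5 to +5. Streptavidin membrane capture, rinsing, phosphorimaging and ImageQuant gave the intensities. These were normalized per position to the sum of the 18 randomized residues (16 for the Ser/Thr-free library) and multiplied by that number.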

BLK, construct: Full length, human, sequence (P51451 whole entry, looked up): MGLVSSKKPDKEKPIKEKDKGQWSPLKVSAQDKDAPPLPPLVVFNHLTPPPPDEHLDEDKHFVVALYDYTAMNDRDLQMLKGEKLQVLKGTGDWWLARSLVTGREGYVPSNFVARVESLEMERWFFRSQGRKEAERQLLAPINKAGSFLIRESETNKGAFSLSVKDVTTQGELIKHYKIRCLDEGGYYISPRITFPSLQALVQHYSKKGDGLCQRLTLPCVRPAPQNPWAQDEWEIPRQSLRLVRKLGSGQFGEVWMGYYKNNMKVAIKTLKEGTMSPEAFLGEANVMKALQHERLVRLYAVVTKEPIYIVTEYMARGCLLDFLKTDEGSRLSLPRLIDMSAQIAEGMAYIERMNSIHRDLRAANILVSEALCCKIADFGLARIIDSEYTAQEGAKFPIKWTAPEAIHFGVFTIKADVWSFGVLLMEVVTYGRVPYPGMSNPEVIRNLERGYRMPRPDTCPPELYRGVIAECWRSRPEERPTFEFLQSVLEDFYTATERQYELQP
AXL, construct: aa473-end, human, sequence (P30530 473-894, looked up): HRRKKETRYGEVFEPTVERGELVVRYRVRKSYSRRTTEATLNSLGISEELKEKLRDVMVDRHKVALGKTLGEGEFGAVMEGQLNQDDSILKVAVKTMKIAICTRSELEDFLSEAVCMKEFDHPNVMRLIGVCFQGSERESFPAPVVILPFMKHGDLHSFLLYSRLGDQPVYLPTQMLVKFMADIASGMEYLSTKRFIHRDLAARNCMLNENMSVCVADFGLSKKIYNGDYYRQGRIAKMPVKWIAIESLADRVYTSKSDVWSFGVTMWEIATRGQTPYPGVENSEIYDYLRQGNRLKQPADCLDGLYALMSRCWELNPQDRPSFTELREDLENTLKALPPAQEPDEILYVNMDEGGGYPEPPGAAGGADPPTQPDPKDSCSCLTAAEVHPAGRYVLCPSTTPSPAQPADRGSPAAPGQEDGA
BMPR2, construct: aa172-end, human, sequence (Q13873 172-1038, looked up): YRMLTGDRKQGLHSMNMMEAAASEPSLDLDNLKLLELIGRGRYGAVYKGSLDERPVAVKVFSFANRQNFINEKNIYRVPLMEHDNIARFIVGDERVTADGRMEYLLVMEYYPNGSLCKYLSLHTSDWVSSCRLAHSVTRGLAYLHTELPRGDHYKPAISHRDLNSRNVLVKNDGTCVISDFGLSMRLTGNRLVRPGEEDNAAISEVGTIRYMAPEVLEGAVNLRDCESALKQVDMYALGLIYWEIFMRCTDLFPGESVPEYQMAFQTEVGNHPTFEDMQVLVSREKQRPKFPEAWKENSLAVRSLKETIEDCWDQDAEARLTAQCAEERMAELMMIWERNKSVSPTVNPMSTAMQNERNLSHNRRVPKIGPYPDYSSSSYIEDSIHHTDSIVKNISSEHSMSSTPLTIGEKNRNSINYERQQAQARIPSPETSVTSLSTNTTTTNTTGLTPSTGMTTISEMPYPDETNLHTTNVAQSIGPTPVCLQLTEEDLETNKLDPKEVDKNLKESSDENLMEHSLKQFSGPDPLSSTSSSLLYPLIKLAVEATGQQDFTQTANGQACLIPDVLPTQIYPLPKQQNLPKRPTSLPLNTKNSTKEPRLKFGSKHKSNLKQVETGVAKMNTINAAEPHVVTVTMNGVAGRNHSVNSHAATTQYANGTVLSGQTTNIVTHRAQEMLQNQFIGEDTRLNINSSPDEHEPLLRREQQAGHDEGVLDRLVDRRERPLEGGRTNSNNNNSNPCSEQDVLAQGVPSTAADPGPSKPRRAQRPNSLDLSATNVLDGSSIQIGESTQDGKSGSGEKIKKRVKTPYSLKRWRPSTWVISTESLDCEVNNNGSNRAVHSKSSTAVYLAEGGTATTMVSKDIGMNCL

AXL, construct: aa473-end, human (from UniProt P30530)
relative phosphorylation
Conditions | at +1 | at +2 | at +3 | at +4 | at +5 | at -1 | at -2 | at -3 | at -4 | at -5
A fixed | 1.58 | 0.759 | 0.52 | 0.973 | 0.953 | 0.707 | 0.976 | 0.87 | 1.16 | 0.962
D fixed | 0.68 | 0.48 | 0.401 | 0.874 | 1.06 | 0.354 | 0.754 | 0.897 | 0.884 | 0.822
E fixed | 1.19 | 0.946 | 0.327 | 1.07 | 1.01 | 0.34 | 0.896 | 1.15 | 1.1 | 0.813
F fixed | 1.12 | 1.43 | 1.61 | 1.03 | 0.877 | 1.51 | 0.6 | 0.911 | 0.948 | 0.965
G fixed | 0.671 | 0.33 | 0.527 | 1.41 | 1.81 | 0.306 | 1.39 | 1.25 | 1.36 | 1.36
H fixed | 1.1 | 0.976 | 1.05 | 1.33 | 0.794 | 1.77 | 1.1 | 1 | 0.905 | 1.08
I fixed | 1.42 | 1.31 | 2.32 | 0.763 | 0.446 | 2.51 | 0.913 | 0.722 | 0.915 | 0.969
K fixed | 0.356 | 0.723 | 0.289 | 0.849 | 0.911 | 0.718 | 1.21 | 1.09 | 1.15 | 1.11
L fixed | 0.971 | 1.33 | 2.33 | 0.84 | 0.548 | 2.03 | 0.762 | 0.792 | 0.986 | 0.913
M fixed | 1.09 | 1.13 | 1.55 | 1.02 | 0.69 | 1.05 | 0.639 | 0.84 | 0.891 | 0.977
N fixed | 0.352 | 0.811 | 0.456 | 0.806 | 1.25 | 1.1 | 1.16 | 1.29 | 0.905 | 1.02
P fixed | 0.183 | 0.751 | 0.892 | 1.29 | 2.23 | 0.518 | 1.1 | 1.25 | 1.09 | 1.18
Q fixed | 1.02 | 0.801 | 0.818 | 1.18 | 1.14 | 0.595 | 1.23 | 0.965 | 1.08 | 1.11
R fixed | 0.457 | 0.845 | 0.425 | 0.928 | 0.64 | 0.549 | 1.14 | 1.12 | 1.19 | 1.26
S fixed | 1.2 | 0.804 | 0.633 | 0.894 | 1.18 | 0.649 | 1.44 | 1.23 | 0.873 | 0.843
T fixed | 1.29 | 0.941 | 0.79 | 0.849 | 1.13 | 0.862 | 1.11 | 1.04 | 0.826 | 0.841
V fixed | 1.72 | 1.2 | 1.45 | 0.744 | 0.6 | 1.27 | 1.05 | 0.785 | 0.862 | 0.827
W fixed | 1.6 | 2.42 | 1.61 | 1.16 | 0.723 | 1.15 | 0.539 | 0.791 | 0.88 | 0.963
pThr fixed | 1.2 | 0.933 | 0.308 | 0.609 | 0.743 | 0.426 | 0.736 | 0.827 | 0.7 | 0.706
pTyr fixed | 1.74 | 2.15 | 0.402 | 0.659 | 0.818 | 1.08 | 0.692 | 1.06 | 0.883 | 0.7

BLK, construct: Full length, human (from UniProt P51451)
relative phosphorylation
Conditions | at +1 | at +2 | at +3 | at +4 | at +5 | at -1 | at -2 | at -3 | at -4 | at -5
A fixed | 2.14 | 1.24 | 0.602 | 0.865 | 0.935 | 0.611 | 1.17 | 0.881 | 1.14 | 1.08
D fixed | 1.33 | 0.554 | 0.236 | 0.56 | 0.668 | 0.87 | 1.64 | 1.7 | 1.68 | 1.46
E fixed | 2 | 1.17 | 0.228 | 0.643 | 0.62 | 1.58 | 2.03 | 2.08 | 1.68 | 1.35
F fixed | 0.463 | 0.799 | 1.9 | 1.14 | 1.02 | 0.648 | 0.466 | 0.996 | 0.777 | 0.846
G fixed | 3.16 | 0.79 | 0.772 | 1.28 | 1.12 | 0.46 | 1.41 | 1.09 | 1.34 | 1.27
H fixed | 0.603 | 0.666 | 0.822 | 1.2 | 1.08 | 0.592 | 0.778 | 1.05 | 0.879 | 0.978
I fixed | 0.558 | 0.865 | 2.22 | 0.721 | 0.713 | 3.23 | 0.629 | 0.607 | 0.833 | 0.764
K fixed | 0.198 | 0.856 | 0.598 | 1.35 | 1.39 | 0.303 | 0.597 | 0.47 | 0.732 | 0.941
L fixed | 0.458 | 0.767 | 2.47 | 1.13 | 0.834 | 1.8 | 0.682 | 0.73 | 0.805 | 0.721
M fixed | 1.11 | 0.83 | 0.927 | 1.16 | 0.938 | 0.995 | 0.605 | 0.853 | 0.913 | 0.816
N fixed | 0.538 | 0.874 | 0.448 | 0.796 | 0.93 | 0.421 | 1.3 | 1.37 | 0.96 | 1.09
P fixed | 0.222 | 1.29 | 0.565 | 0.834 | 1.18 | 0.706 | 1.35 | 0.917 | 1.2 | 1.23
Q fixed | 1.16 | 0.957 | 0.414 | 0.998 | 0.87 | 0.589 | 1.15 | 0.926 | 1.09 | 1.12
R fixed | 0.335 | 1.26 | 1.3 | 1.71 | 1.78 | 0.324 | 0.707 | 0.619 | 0.81 | 0.97
S fixed | 1.15 | 1.49 | 0.608 | 0.921 | 1.06 | 0.454 | 1.16 | 1.09 | 0.833 | 0.968
T fixed | 0.904 | 1.78 | 0.724 | 0.902 | 1.09 | 1.54 | 1.07 | 1.05 | 0.82 | 0.859
V fixed | 0.71 | 1.18 | 1.29 | 0.759 | 0.786 | 2.31 | 0.762 | 0.62 | 0.737 | 0.753
W fixed | 0.956 | 0.629 | 1.88 | 1.04 | 0.981 | 0.564 | 0.478 | 0.951 | 0.784 | 0.793
pThr fixed | 0.782 | 1.66 | 0.255 | 0.373 | 0.472 | 2.81 | 1.61 | 1.16 | 1.21 | 1.35
pTyr fixed | 1.22 | 1.85 | 0.494 | 0.629 | 0.643 | 0.876 | 1.17 | 1.55 | 1.41 | 1.4

BMPR2, construct: aa172-end, human (from UniProt Q13873)
relative phosphorylation
Conditions | at +1 | at +2 | at +3 | at +4 | at +5 | at -1 | at -2 | at -3 | at -4 | at -5
A fixed | 0.886 | 0.936 | 0.914 | 0.977 | 0.907 | 0.88 | 0.948 | 0.948 | 0.967 | 0.964
D fixed | 0.835 | 1.34 | 1.18 | 1.05 | 1.04 | 2.25 | 1.25 | 1.33 | 1.31 | 1.29
E fixed | 0.785 | 1.44 | 1.13 | 1.07 | 1.04 | 1.44 | 1.08 | 1.27 | 1.16 | 1.1
F fixed | 0.959 | 0.852 | 0.953 | 0.96 | 0.947 | 0.755 | 1.09 | 0.989 | 1.13 | 1.06
G fixed | 0.927 | 0.923 | 1.03 | 1.04 | 1.07 | 1.46 | 1.03 | 1.02 | 0.965 | 0.987
H fixed | 1.03 | 0.986 | 0.995 | 1.08 | 1.06 | 0.796 | 1.09 | 1.1 | 1.14 | 1.05
I fixed | 1.02 | 0.969 | 1.02 | 1 | 0.961 | 0.767 | 0.754 | 0.855 | 0.861 | 0.928
K fixed | 1.11 | 0.898 | 0.966 | 1.04 | 1.06 | 0.708 | 1.06 | 0.872 | 0.875 | 0.942
L fixed | 1.09 | 0.864 | 0.827 | 0.834 | 0.842 | 0.832 | 1.05 | 0.852 | 0.896 | 0.863
M fixed | 1.06 | 0.913 | 0.906 | 0.917 | 0.874 | 0.841 | 0.97 | 0.881 | 0.901 | 0.892
N fixed | 0.897 | 1.08 | 1 | 1 | 0.99 | 1.08 | 1 | 1.1 | 0.933 | 1.05
P fixed | 1.23 | 0.981 | 1.05 | 1.07 | 1.15 | 0.724 | 0.825 | 0.86 | 0.905 | 0.928
Q fixed | 0.917 | 0.994 | 0.979 | 0.957 | 0.972 | 0.92 | 1.01 | 1.01 | 0.987 | 1.03
R fixed | 1.2 | 0.99 | 1.14 | 1.1 | 1.23 | 0.92 | 1.05 | 1.04 | 0.92 | 0.975
V fixed | 1.26 | 1.03 | 1.04 | 0.972 | 0.979 | 0.781 | 0.732 | 0.918 | 0.911 | 0.906
W fixed | 0.808 | 0.789 | 0.875 | 0.919 | 0.88 | 0.843 | 1.06 | 0.963 | 1.14 | 1.03
pThr fixed | 2.07 | 1.7 | 1.39 | 1.4 | 1.12 | 3.29 | 1.35 | 1.22 | 1.22 | 1.27
pTyr fixed | 1.48 | 2.01 | 1.17 | 1.27 | 1.05 | 2.54 | 1.64 | 2.3 | 2 | 1.47
